The values below come from paper PMC3694354 (Biochemistry, 2008).

The target in data set [1] is T1, 4-chlorobenzoate:CoA ligase (CBL; CBAL) (Alcaligenes sp. AL3007, UniProt Q8GN86).
T1 sequence (Q8GN86 1-504): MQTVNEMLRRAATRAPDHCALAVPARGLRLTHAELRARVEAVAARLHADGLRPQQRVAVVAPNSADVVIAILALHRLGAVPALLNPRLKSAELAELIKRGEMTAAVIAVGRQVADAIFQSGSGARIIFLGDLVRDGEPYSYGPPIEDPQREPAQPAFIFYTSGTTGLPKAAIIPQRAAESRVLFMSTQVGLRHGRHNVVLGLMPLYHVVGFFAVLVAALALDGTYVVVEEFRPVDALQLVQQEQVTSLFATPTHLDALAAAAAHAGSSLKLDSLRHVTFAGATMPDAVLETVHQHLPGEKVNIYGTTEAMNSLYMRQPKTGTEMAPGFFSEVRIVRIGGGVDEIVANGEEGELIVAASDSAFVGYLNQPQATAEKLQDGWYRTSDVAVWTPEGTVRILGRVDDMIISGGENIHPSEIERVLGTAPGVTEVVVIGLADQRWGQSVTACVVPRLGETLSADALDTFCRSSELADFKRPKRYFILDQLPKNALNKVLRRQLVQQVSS
The data set can be described thus: coupled AMP-forming assay, inhibition kinetics. The class given is biochemical.

The target in data set [2] is T1, 4-chlorobenzoate:CoA ligase (CBL; CBAL). The data set can be described thus: direct spectrophotometric assay at […] nm, inhibition kinetics. The class given is biochemical.
Substrate in data set [3]: Cc1ccc(C(=O)O)cc1
The experiment in a line: purified protein. The following applies: 3.5 mM ATP, CoA varied, 15 mM MgCl2, pH 7.5, 25 °C.

Substrate in data set [4]: Nc1ncnc2c1ncn2[C@@H]1O[C@H](COP(=O)(O)OP(=O)(O)OP(=O)(O)O)[C@@H](O)[C@H]1O
The data set can be described thus: coupled AMP-forming assay, initial velocity. The class given is biochemical, Alcaligenes sp. AL3007. The following applies: 200 μM 4-methylbenzoate, CoA varied, 15 mM MgCl2, pH 7.5, 25 °C.

Substrate in data set [5]: CC(C)(COP(=O)(O)OP(=O)(O)OC[C@H]1O[C@@H](n2cnc3c(N)ncnc32)[C@H](O)[C@@H]1OP(=O)(O)O)[C@@H](O)C(=O)NCCC(=O)NCCS
The data set can be described thus: coupled AMP-forming assay, initial velocity. Format: biochemical, Alcaligenes sp. AL3007. The following applies: 3.5 mM ATP, 4-methylbenzoate varied, 15 mM MgCl2, pH 7.5, 25 °C.

In data set [1], `O=P(O)(O)OP(=O)(O)O` [PPi] gave an inhibition constant (Ki) of 95 ± 10 µM.

In data set [1], `CC(C)(COP(=O)(O)OP(=O)(O)OC[C@H]1O[C@@H](n2cnc3c(N)ncnc32)[C@H](O)[C@@H]1OP(=O)(O)O)[C@@H](O)C(=O)NCCC(=O)NCCSCC(=O)c1ccc(Cl)cc1` [4-CP-CoA, 4-chlorophenacyl-CoA] came in with a Ki of 21 ± 8 µM.

`CC(C)(COP(=O)(O)OP(=O)(O)OC[C@H]1O[C@@H](n2cnc3c(N)ncnc32)[C@H](O)[C@@H]1OP(=O)(O)O)[C@@H](O)C(=O)NCCC(=O)NCCSCc1ccc(Cl)cc1` [4-chlorobenzyl-CoA] returned a Ki in data set [1] of 45 ± 10 µM.

On to `Nc1ncnc2c1ncn2[C@@H]1O[C@H](COP(=O)(O)O)[C@@H](O)[C@H]1O` [AMP], for which the Ki in data set [2] was 120 ± 20 µM.

B1: 4-chlorobenzoate:CoA ligase (CBL; CBAL) (Alcaligenes sp. AL3007) (protein)
chain: T1 sequence (Q8GN86 1-504)
B1: the Michaelis constant (Km) in data set [3] was found to be 30 ± 5 µM; in data set [4] it was 180 ± 15 µM; in data set [5], 160 ± 20 µM. For the same molecule, the turnover number (kcat) in data set [3] was determined as 8.0 ± 0.6 s⁻¹; in data set [4] it was 8.2 ± 0.3 s⁻¹; in data set [5], 8.0 ± 0.6 s⁻¹.

In general, Ki refers to the dissociation constant of the complex between target and ligand, obtained from inhibition or displacement. Lower therefore signals tighter binding. Broadly, the Km is the substrate concentration at which the rate is half of its maximum. For orientation: kcat means the maximal rate divided by the concentration of active sites.
